Experimental findings from the Human Domainome abundance scans (Beltran et al. 2025) are described below.

± gives the uncertainty stated by the source.

First the molecules themselves.
B1: Steroid hormone receptor ERR2, residues 100 to 176; numbered along this chain, O95718 (parent)
chain: KRLCLVCGDIASGYHYGVASCEACKAFFKRTIQGNIEYSCPATNECEITKRRRKSCQACRFMKCLKVGMLKEGVRLD

In the data set the parent is B1. The experiment in a line: abundance fitness (aPCA) (normalised: wild type 0, dead -1); higher = more abundant; growth selection in yeast, the domain comes from the species named. The following applies: Homo sapiens.
Consider KRLCLVCGDIASGYHYGVKSCEACKAFFKRTIQGNIEYSCPATNECEITKRRRKSCQACRFMKCLKVGMLKEGVRLD [A19K], for which the abundance fitness is -0.135 ± 0.055.
In the case of KRLCLVCGDIASGYHYGVDSCEACKAFFKRTIQGNIEYSCPATNECEITKRRRKSCQACRFMKCLKVGMLKEGVRLD [A19D] it was 0.046 ± 0.067; in that of KRLCLVCGDIASGYHYGVCSCEACKAFFKRTIQGNIEYSCPATNECEITKRRRKSCQACRFMKCLKVGMLKEGVRLD [A19C], -0.41 ± 0.1.
Regarding KRLCLVCGDIASGYHYGVLSCEACKAFFKRTIQGNIEYSCPATNECEITKRRRKSCQACRFMKCLKVGMLKEGVRLD [A19L], the abundance fitness was -0.046 ± 0.041.
Next, KRLCLVCGDIASGYHYGVFSCEACKAFFKRTIQGNIEYSCPATNECEITKRRRKSCQACRFMKCLKVGMLKEGVRLD [A19F]: -0.326 ± 0.14; KRLCLVCGDIASGYHYGVESCEACKAFFKRTIQGNIEYSCPATNECEITKRRRKSCQACRFMKCLKVGMLKEGVRLD [A19E]: 0.043 ± 0.05; KRLCLVCGDIASGYHYGVISCEACKAFFKRTIQGNIEYSCPATNECEITKRRRKSCQACRFMKCLKVGMLKEGVRLD [A19I]: -0.464 ± 0.14.
In the case of KRLCLVCGDIASGYHYPVASCEACKAFFKRTIQGNIEYSCPATNECEITKRRRKSCQACRFMKCLKVGMLKEGVRLD [G17P] it was -0.416 ± 0.093; in that of KRLCLVCGDIASGYHYAVASCEACKAFFKRTIQGNIEYSCPATNECEITKRRRKSCQACRFMKCLKVGMLKEGVRLD [G17A], -0.075 ± 0.045.
For the variant KRLCLVCGDIASGYHYKVASCEACKAFFKRTIQGNIEYSCPATNECEITKRRRKSCQACRFMKCLKVGMLKEGVRLD [G17K], the abundance fitness is -0.477 ± 0.092.
Regarding KRLCLVCGDIASGYHYDVASCEACKAFFKRTIQGNIEYSCPATNECEITKRRRKSCQACRFMKCLKVGMLKEGVRLD [G17D], the abundance fitness was -0.091 ± 0.11.
In the case of KRLCLVCGDIASGYHYFVASCEACKAFFKRTIQGNIEYSCPATNECEITKRRRKSCQACRFMKCLKVGMLKEGVRLD [G17F] it was -0.551 ± 0.26; in that of KRLCLVCGDIASGYHYEVASCEACKAFFKRTIQGNIEYSCPATNECEITKRRRKSCQACRFMKCLKVGMLKEGVRLD [G17E], -0.027 ± 0.071; in that of KRLCLVCGDIASGYHYLVASCEACKAFFKRTIQGNIEYSCPATNECEITKRRRKSCQACRFMKCLKVGMLKEGVRLD [G17L], -0.601 ± 0.068.
In the case of KRLCLVCGDIASGYHYVVASCEACKAFFKRTIQGNIEYSCPATNECEITKRRRKSCQACRFMKCLKVGMLKEGVRLD [G17V] it was -0.413 ± 0.055.
In the case of KRLCLVCGDIASGYHYWVASCEACKAFFKRTIQGNIEYSCPATNECEITKRRRKSCQACRFMKCLKVGMLKEGVRLD [G17W] it was -0.359 ± 0.075.
On to KRLCLVCGDIASGYHYQVASCEACKAFFKRTIQGNIEYSCPATNECEITKRRRKSCQACRFMKCLKVGMLKEGVRLD [G17Q], for which the abundance fitness was -0.748 ± 0.11.
Take KRLCLVCGDIASGYHYTVASCEACKAFFKRTIQGNIEYSCPATNECEITKRRRKSCQACRFMKCLKVGMLKEGVRLD [G17T]: the abundance fitness was -0.337 ± 0.078.
Next, KRLCLVCGDIASGYHYHVASCEACKAFFKRTIQGNIEYSCPATNECEITKRRRKSCQACRFMKCLKVGMLKEGVRLD [G17H]: -0.356 ± 0.19; KRLCLVCGDIASGYHYSVASCEACKAFFKRTIQGNIEYSCPATNECEITKRRRKSCQACRFMKCLKVGMLKEGVRLD [G17S]: -0.266 ± 0.056.
KRLCLVCGDIASGYHYRVASCEACKAFFKRTIQGNIEYSCPATNECEITKRRRKSCQACRFMKCLKVGMLKEGVRLD [G17R]: the abundance fitness is -0.495 ± 0.055.
In the case of KRLCLVCGDIASGYHWGVASCEACKAFFKRTIQGNIEYSCPATNECEITKRRRKSCQACRFMKCLKVGMLKEGVRLD [Y16W] it was -0.103 ± 0.074; in that of KRLCLVCGDIASGYHYGDASCEACKAFFKRTIQGNIEYSCPATNECEITKRRRKSCQACRFMKCLKVGMLKEGVRLD [V18D], -0.471 ± 0.18; in that of KRLCLVCGDIASGYHYGGASCEACKAFFKRTIQGNIEYSCPATNECEITKRRRKSCQACRFMKCLKVGMLKEGVRLD [V18G], -0.259 ± 0.066.
Next, KRLCLVCGDIASGYHYGYASCEACKAFFKRTIQGNIEYSCPATNECEITKRRRKSCQACRFMKCLKVGMLKEGVRLD [V18Y]: -0.663 ± 0.14; KRLCLVCGDIASGYHYGWASCEACKAFFKRTIQGNIEYSCPATNECEITKRRRKSCQACRFMKCLKVGMLKEGVRLD [V18W]: -0.657 ± 0.094; KRLCLVCGDIASGYHYGQASCEACKAFFKRTIQGNIEYSCPATNECEITKRRRKSCQACRFMKCLKVGMLKEGVRLD [V18Q]: -0.375 ± 0.089.
Next, KRLCLVCGDIASGYHYGHASCEACKAFFKRTIQGNIEYSCPATNECEITKRRRKSCQACRFMKCLKVGMLKEGVRLD [V18H]: -0.245 ± 0.1; KRLCLVCGDIASGYHYGRASCEACKAFFKRTIQGNIEYSCPATNECEITKRRRKSCQACRFMKCLKVGMLKEGVRLD [V18R]: -0.384 ± 0.07; KRLCLVCGDIASGYHYGFASCEACKAFFKRTIQGNIEYSCPATNECEITKRRRKSCQACRFMKCLKVGMLKEGVRLD [V18F]: -0.428 ± 0.089.
Take KRLCLVCGDIASGYHYGMASCEACKAFFKRTIQGNIEYSCPATNECEITKRRRKSCQACRFMKCLKVGMLKEGVRLD [V18M]: the abundance fitness worked out at 0.218 ± 0.42.
Next, KRLCLVCGDIASGYHYGAASCEACKAFFKRTIQGNIEYSCPATNECEITKRRRKSCQACRFMKCLKVGMLKEGVRLD [V18A]: -0.26 ± 0.072.
For KRLCLVCGDIASGYHYGLASCEACKAFFKRTIQGNIEYSCPATNECEITKRRRKSCQACRFMKCLKVGMLKEGVRLD [V18L], the abundance fitness is -0.613 ± 0.071.
As for KRLCLVCGDIASGYHYGPASCEACKAFFKRTIQGNIEYSCPATNECEITKRRRKSCQACRFMKCLKVGMLKEGVRLD [V18P], the abundance fitness was -0.331 ± 0.078.
In the case of KRLCLVCGDIASGYHYGEASCEACKAFFKRTIQGNIEYSCPATNECEITKRRRKSCQACRFMKCLKVGMLKEGVRLD [V18E] it was -0.399 ± 0.14; in that of KRLCLVCGDIASGYHYGCASCEACKAFFKRTIQGNIEYSCPATNECEITKRRRKSCQACRFMKCLKVGMLKEGVRLD [V18C], -0.169 ± 0.076.
